US5723594, “High affinity PDGF nucleic acid ligands” (NeXstar Pharmaceuticals, Inc.)

Assays:
Conditions in all cases: tags: R&D Systems, carrier-free, E. coli produced; chain copies: 2 (homodimer, inferred); label: 5'-32P; three-way helix junction
PDGF-BB [1] = target: T1, PDGF-BB (Homo sapiens, UniProt P01127 P01127:82-190); assay: cell_activity; inhibition of thymidine incorporation in PAE cells expressing PDGF beta-receptor, 20 ng/ml PDGF-BB
Description: (§1) The incorporation of [^3H]thymidine into PAE cells expressing PDGF β-receptor in response to 20 ng/ml of PDGF-BB or 10% fetal calf serum and in the presence of different concentrations of DNA ligands was performed as described (Mori et al., (1991) *J. Biol. Chem.* 266, 21158–21164). After incubation for 24 h at 37° C., ^3H-radioactivity incorporated into DNA was determined using a β-counter.
(§2) We furthermore investigated the ability of the DNA ligands to inhibit the mitogenic effects of PDGF-BB on PAE cells expressing PDGF β-receptors. […] The control ligand T39 had no effect. Moreover, none of the ligands inhibited the stimulatory effects of fetal calf serum on [^3H]thymidine incorporation in these cells, showing that the inhibitory effects are specific for PDGF.

PDGF-BB [2] = target: T1, PDGF-BB; assay: cell_activity; slightly more efficient than 36t; thymidine incorporation
Description: as §1, §2

PDGF-BB [3] = target: T1, PDGF-BB; assay: cell_activity; slightly less efficient than 36t; thymidine incorporation
Description: as §1, §2

T1 sequence (P01127 82-190, one chain of several): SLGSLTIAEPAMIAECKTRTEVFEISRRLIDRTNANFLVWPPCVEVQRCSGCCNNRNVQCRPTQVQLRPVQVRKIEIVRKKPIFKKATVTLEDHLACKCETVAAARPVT

Binder CACAGGCTACGGCACGTAGAGCATCACCATGATCCTGTGT (ssDNA, 3'-3' linked inverted T at 3' end) [36t] has an IC50 (PDGF-BB [1]) of 2.5 nM.

With TACTCAGGGCACTGCAAGCAATTGTGGTCCCAATGGGCTGAGTAT (ssDNA, 3'-3' linked inverted T at 3' end) [41t] the IC50 (PDGF-BB [2]) was < 2.5 nM.

For TGGGAGGGCGCGTTCTTCGTGGTTACTTTTAGTCCCGT (ssDNA, 3'-3' linked inverted T at 3' end) [20t], the IC50 (PDGF-BB [3]) was > 2.5 nM.
